{"source": "paper PMC12363175", "about": "(2025)", "binders": {"B1": {"name": "horse ACE2 ectodomain fused with mFc (Fc fusion)", "chain": "QSTTEDLAKTFLEKFNSEAEELSHQSSLASWSYNTNITDENVQKMNEAGARWSAFYEEQCKLAKTYPLEEIQNLTVKRQLQALQQSGSSVLSADKSKRLNEILNTMSTIYSTGKVCNPSNPQECLLLEPGLDAIMENSKDYNQRLWAWEGWRSEVGKQLRPLYEEYVVLKNEMARANNYEDYGDYWRGDYEAEGPSGYDYSRDQLIEDVERTFAEIKPLYEHLHAYVRAKLMDTYPSHINPTGCLPAHLLGDMWGRFWTNLYSLTVPFGQKPNIDVTDAMVDQSWDAKRIFEEAEKFFVSVGLPNMTQGFWENSMLTEPGDGRKVVCHPTAWDLGKGDFRIKMCTKVTMDDFLTAHHEMGHIQYDMAYAVQPYLLRNGANEGFHEAVGEIMSLSAATPNHLKAIGLLPPDFYEDSETEINFLLKQALTIVGTLPFTYMLEKWRWMVFKGEIPKEEWMKKWWEMKREIVGVVEPVPHDETYCDPAALFHVANDYSFIRYYTRTIYQFQFQEALCQTAKHEGPLHKCDISNSTEAGQKLLQMLSLGKSEPWTLALERIVGVKNMDVRPLLNYFEPLFTWLKDQNKNSFVGWSTNWSPYADQSIKVRISLKSALGEKSYEWNDNEMYLFQSSVAYAMRVYFLKAKNQTILFGEEDVWVSDLKPRISFNFFVTSPKNASDIIPRTDVEEAIRMSRSRINDAFRLDDNTLEFLGIQPTLGPPYQPPVT"}, "B2": {"name": "goat ACE2 ectodomain fused with mFc (Fc fusion)", "chain": "QSTTEEQAKTFLEKFNHEAEDLSYQSSLASWNYNTNITDENVQKMNEARAKWSAFYEEQSRMARTYSLEEIQNLTLKRQLKALQHSGTSVLSAEKSKRLNTILNKMSTIYSTGKVLDPNTQECLALEPGLDDIMENSRDYNRRLWAWEGWRAEVGKQLRPLYEEYVVLENEMARANNYEDYGDYWRGDYEVTGAGDYDYSRDQLMKDVERTFAEIKPLYEQLHAYVRAKLMNTYPSYISPTGCLPAHLLGDMWGRFWTNLYSLTVPFEHKPSIDVTEKMKNQSWDAERIFKEAEKFFVSIGLPYMTQGFWNNSMLTEPGDGRKVVCHPTAWDLGKGDFRIKMCTKVTMDDFLTAHHEMGHIQYDMAYATQPYLLRNGANEGFHEAVGEIMSLSAATPHYLKALGLLAPDFYEDNETEINFLLKQALTIVGTLPFTYMLEKWRWMVFKGEIPKQQWMEKWWEMKREIVGVVEPLPHDETYCDPACLFHVAEDYSFIRYYTRTIYQFQFHEALCKTAKHEGALFKCDISNSTEAGQRLLQMLRLGKSEPWTLALENIVGIKTMDVKPLLNYFEPLFTWLKEQNRNSFVGWSTEWTPYSDQSIKVRISLKSALGENAYEWNDNEMYLFRSSVAYAMRKYFLEDRNETIPFGEENVWVSDKKPRISFKFFVTSPNNVSDIIPRTEVENAIRLCRDRINDAFQLDDNSLEFLGIQPTLRPPYEPP"}, "B3": {"name": "raccoon dog ACE2 ectodomain fused with mFc (Fc fusion)", "chain": "QSTEDLVNTFLEKFNYEAEELSYQSSLASWNYNTNITDENLQKMNNAGAKWSAFYEEQSKLAKTYPLEEIQDSTVKRQLRALQHSGSSVLSADKNQRLNTILNSMSTIYSTGKACNPSNPQECLLLEPGLDDIMENSKDYNERLWAWEGWRSEVGKQLRPLYEEYVALKNEMARANNYEDYGDYWRGDYEEEWENGYNYSRNQLIDDVEHTFTQIMPLYQHLHAYVRTKLMDTYPSYISPTGCLPAHLLGDMWGRFWTNLYPLTVPFGQKPNIDVTNAMVNQSWDARKIFKEAEKFFVSVGLPNMTQGFWENSMLTEPSDSWKVVCHPTAWDLGRGDFRIKMCTKVTMDDFLTAHHEMGHIQYDMAYAAQPFLLRNGANEGFHEAVGEIMSLSAATPNHLKNIGLLPPSFFEDSETEINFLLKQALTIVGTLPFTYMLEKWRWMVFKGEIPKDQWMKTWWEMKRNIVGVVEPVPHDETYCDPASLFHVANDYSFIRYYTRTIYQFQFQEALCQIAKHEGPLHKCDISNSSEAGQKLLEMLKLGKSKPWTYALEIVVGAKNMDVRPLLNYFEPLFTWLKEQNRNSFVGWNTDWSPYADQSIKVRISLKSALGEKAYEWNNNEMYLFRSSIAYAMRQYFSEVKNQTIPFVEDNVWVSDLKPRISFNFFVTSPGNVSDIIPRTEVEEAIRMYRSRINDVFRLDDNSLEFLGIQPTLGPPYEPPVT"}, "B4": {"name": "dog ACE2 ectodomain fused with mFc (Fc fusion)", "chain": "QSTEDLVKTFLEKFNYEAEELSYQSSLASWNYNINITDENVQKMNNAGAKWSAFYEEQSKLAKTYPLEEIQDSTVKRQLRALQHSGSSVLSADKNQRLNTILNSMSTIYSTGKACNPSNPQECLLLEPGLDDIMENSKDYNERLWAWEGWRSEVGKQLRPLYEEYVALKNEMARANNYEDYGDYWRGDYEEEWENGYNYSRNQLIDDVEHTFTQIMPLYQHLHAYVRTKLMDTYPSYISPTGCLPAHLLGDMWGRFWTNLYPLTVPFGQKPNIDVTNAMVNQSWDARKIFKEAEKFFVSVGLPNMTQEFWENSMLTEPSDSRKVVCHPTAWDLGKGDFRIKMCTKVTMDDFLTAHHEMGHIQYDMAYAAQPFLLRNGANEGFHEAVGEIMSLSAATPNHLKNIGLLPPSFFEDSETEINFLLKQALTIVGTLPFTYMLEKWRWMVFKGEIPKDQWMKTWWEMKRNIVGVVEPVPHDETYCDPASLFHVANDYSFIRYYTRTIYQFQFQEALCQIAKHEGPLHKCDISNSSEAGQKLLEMLKLGKSKPWTYALEIVVGAKNMDVRPLLNYFEPLFTWLKEQNRNSFVGWNTDWSPYADQSIKVRISLKSALGEKAYEWNNNEMYLFRSSIAYAMRQYFSEVKNQTIPFVEDNVWVSDLKPRISFNFFVTSPGNVSDIIPRTEVEEAIRMYRSRINDVFRLDDNSLEFLGIQPTLGPPYEPPVT"}, "B5": {"name": "fox ACE2 ectodomain fused with mFc (Fc fusion)", "chain": "QSTEDLVNTFLEKFNYEAEELSYQSSLASWDYNTNISDENVQKMNNAGAKWSAFYEEQSKLAKTYPLEEIQDSTVKRQLRALQHSGSSVLSADKNQRLNTILNSMSTIYSTGKACNPSNPQECLLLEPGLDDIMENSKDYNERLWAWEGWRSEVGKQLRPLYEEYVALKNEMARANNYEDYGDYWRGDYEEEWENGYNYSRNQLIDDVEHTFTQIMPLYQHLHAYVRTKLMDTYPSYISPTGCLPAHLLGDMWGRFWTNLYPLTVPFGQKPNIDVTNAMVNQSWDARKIFKEAEKFFVSVGLPNMTQGFWENSMLTEPSDSRKVVCHPTAWDLGKGDFRIKMCTKVTMDDFLTAHHEMGHIQYDMAYAAQPFLLRNGANEGFHEAVGEIMSLSAATPNHLKNIGLLPPSFFEDSETEINFLLKQALTIVGTLPFTYMLEKWRWMVFKGEIPKDQWMKTWWEMKRNIVGVVEPVPHDETYCDPASLFHVANDYSFIRYYTRTIYQFQFQEALCQIAKHEGPLHKCDISNSSEAGQKLLEMLKLGKSKPWTYALEIVVGAKNMDVRPLLNYFEPLFTWLKEQNRNSFVGWNTDWSPYADQSIKVRISLKSALGEKAYEWNNNEMYLFRSSIAYAMRRYFSEVKKQTIPFVEDNVWVSDLKPRISFNFFVTSPGNVSDIIPRTEVEKAIRMYRGRINDVFRLDDNSLEFLGIQPTLGPPYEPPVT"}, "B6": {"name": "Chinese hamster ACE2 ectodomain fused with mFc (Fc fusion)", "chain": "QSIIEEQAKTFLDKFNQEAEDLSYQSALASWNYNTNITEENAQKMNEAAAKWSAFYEEQSKLAKNYSLQEVQNLIIKRQLQALQQSGSSALSADKNKQLNTILNTMSTIYSTGKVCNPKNPQECLLLEPGLDDIMATSTDYNERLWAWEGWRAEVGKQLRPLYEEYVVLKNEMARANNYKDYGDYWRGDYEAEGADGYNYNGNQLIEDVERTFKEIKPLYEQLHAYVRTKLMDTYPSFISPTGCLPAHLLGDMWGRFWTNLYPLTVPFGQKPNIDVTDAMVNQGWDAERIFKEAEKFFVSVGLPHMTQGFWGNSMLTDPGDDRKVVCHPTAWDLGKGDFRIKMCTKVTMDNFLTAHHEMGHIQYDMAYATQPFLLRNGANEGFHEAVGEIMSLSAATPKHLKSIGLLPSNFHEDNETEINFLLKQALTIVGTLPFTYMLEKWRWMVFKGDIPKEKWMEKWWEMKREIVGVVEPLPHDETYCDPAALFHVSNDYSFIRYYTRTIYQFQFQEALCQAAKHDGPLHKCDISNSTEAGQKLLNMLRLGKSEPWTLALENVVGARNMDVRPLLNYFEPLSVWLKEQNKNSFVGWNTDWSPYADQSIKVRISLKSALGENAYEWNDNEMYLFRATVAYAMRVYFAKNKTQTVLFGVEDIRVSDLKPRVSFNFFVTSPQNVSDIIPRNEVEEAVRFSRGRINDVFGLDDNSLEFLGINPTLAPPYQPPVT"}, "B7": {"name": "pig ACE2 ectodomain fused with mFc (Fc fusion)", "chain": "QSTTEELAKTFLEKFNLEAEDLAYQSSLASWNYNTNITDENIQKMNDARAKWSAFYEEQSRIAKTYPLDEIQTLILKRQLQALQQSGTSGLSADKSKRLNTILNTMSTIYSSGKVLDPNNPQECLVLEPGLDEIMENSKDYSRRLWAWESWRAEVGKQLRPLYEEYVVLENEMARANNYEDYGDYWRGDYEVTGTGDYDYSRNQLMEDVERTFAEIKPLYEHLHAYVRAKLMDAYPSRISPTGCLPAHLLGDMWGRFWTNLYPLTVPFGEKPSIDVTEAMVNQSWDAIRIFEEAEKFFVSIGLPNMTQGFWNNSMLTEPGDGRKVVCHPTAWDLGKGDFRIKMCTKVTMDDFLTAHHEMGHIQYDMAYAIQPYLLRNGANEGFHEAVGEIMSLSAATPHYLKALGLLPPDFYEDSETEINFLLKQALTIVGTLPFTYMLEKWRWMVFKGEIPKEQWMQKWWEMKREIVGVVEPLPHDETYCDPACLFHVAEDYSFIRYYTRTIYQFQFHEALCRTAKHEGPLYKCDISNSTEAGQKLLQMLSLGKSEPWTLALENIVGVKTMDVKPLLSYFEPLLTWLKAQNGNSSVGWNTDWTPYADQSIKVRISLKSALGKEAYEWNDNEMYLFRSSIAYAMRNYFSSAKNETIPFGAEDVWVSDLKPRISFNFFVTSPANMSDIIPRSDVEKAISMSRSRINDAFRLDDNTLEFLGIQPTLGPPDEPP"}, "B8": {"name": "rabbit ACE2 ectodomain fused with mFc (Fc fusion)", "chain": "QSTIEELAKTFLEKFNQEAEDLSYQSALASWDYNTNITEENVQKMNDAEAKWSAFYEEQSKLAKTYPSQEVQNLTVKRQLQALQQSGSSALSADKSKQLNTILSTMSTIYSTGKVCNQSNPQECFLLEPGLDEIMAKSTDYNERLWAWEGWRSVVGKQLRPLYEEYVVLKNEMARANNYEDYGDYWRADYEAEGADGYDYSRSQLIDDVERTFSEIKPLYEQLHAFVRTKLMDAYPSRISPTGCLPAHLLGDMWGRFWTNLYSLTVPFGQKPNIDVTDTMVNQGWDAERIFKEAEKFFVSVGLPSMTQGFWENSMLTEPGDGRKVVCHPTAWDLGKGDFRIKMCTKVTMDNFLTAHHEMGHIQYDMAYATQPFLLRNGANEGFHEAVGEIMSLSAATPEHLKSIGLLPYDFHEDNETEINFLLKQALTIVGTLPFTYMLEKWRWMVFKGEIPKEQWMQKWWEMKREIVGVVEPMPHDETYCDPAALFHVANDYSFIRYYTRTIYQFQFQEALCQAAQHEGPLHKCDISNSTEAGQKLLNMLRLGRSEPWTLALENVVGAKNMDVRPLLNYFEPLFTWLKEQNRNSFVGWSTEWTPYADQSIKVRISLKTALGDQAYEWNDSEMYLFRSSVAYAMRKYFSEVKNQTILFGEEDVRVSDLKPRISFNFFVTAPNNVNDIIPRNEVEEAISMSRSRINDIFRLDDNSLEFVGIQPTLEPPYESPVP"}}, "data": [{"target": "SARS-CoV-2 PT-RBD (SARS-CoV-2 prototype, UniProt P0DTC2)", "assay": "SPR", "units": {"Kd": "nM"}, "values": [{"binder": "B1", "Kd": 64.4}, {"binder": "B2", "Kd": 451}, {"binder": "B3", "Kd": 424}, {"binder": "B4", "Kd": 299}, {"binder": "B5", "Kd": 59.2}, {"binder": "B6", "Kd": 69.4}, {"binder": "B7", "Kd": 175}, {"binder": "B8", "Kd": 74.8}]}]}
